Target: anti-dnaJ antibodies in sera obtained from patients with early stage RA
Assay: inhibition ELISA; rdnaJ-coated plates, sera 1:100 preincubated with the peptide, goat anti-human IgG detection

## QKRAAYDQYGHAAFE [wild-type dnaJ peptide …]
  inhibition of antibody binding to rdnaJ, fold against control sera: 3 fold

From EP0762881B1
